Biological target: the molecule itself
Assay: cryo-EM structure; purified cSID1 in 25 mM HEPES pH 7.4, 150 mM NaCl, 0.01% GDN; apo and mixed with 100 uM 50-bp dsRNA; C2 symmetry imposed (the dsRNA complex also refined in C1)

B1: Caenorhabditis elegans systemic RNAi-defective protein 1 (SID1) (natural protein, UniProt Q9GZC8 18-776, looked up)
chain: QNNSTTPSPIITSSNSSVLVFEISSKMKMIEKKLEANTVHVLRLELDQSFILDLTKVAAEIVDSSKYSKEDGVILEVTVSNGRDSFLLKLPTVYPNLKLYTDGKLLNPLVEQDFGAHRKRHRIGDPHFHQNLIVTVQSRLNADIDYRLHVTHLDRAQYDFLKFKTGQTTKTLSNQKLTFVKPIGFFLNCSEQNISQFHVTLYSEDDICANLITVPANESIYDRSVISDKTHNRRVLSFTKRADIFFTETEISMFKSFRIFVFIAPDDSGCSTNTSRKSFNEKKKISFEFKKLENQSYAVPTALMMIFLTTPCLLFLPIVINIIKNSRKLAPSQSNLISFSPVPSEQRDMDLSHDEQQNTSSELENNGEIPAAENQIVEEITAENQETSVEEGNREIQVKIPLKQDSLSLHGQMLQYPVAIILPVLMHTAIEFHKWTTSTMANRDEMCFHNHACARPLGELRAWNNIITNIGYTLYGAIFIVLSICRRGRHEYSHVFGTYECTLLDVTIGVFMVLQSIASATYHICPSDVAFQFDTPCIQVICGLLMVRQWFVRHESPSPAYTNILLVGVVSLNFLISAFSKTSYVRFIIAVIHVIVVGSICLAKERSLGSEKLKTRFFIMAFSMGNFAAIVMYLTLSAFHLNQIATYCFIINCIMYLMYYGCMKVLHSERITSKAKLCGALSLLAWAVAGFFFFQDDTDWTRSAAASRALNKPCLLLGFFGSHDLWHIFGALAGLFTFIFVSFVDDDLINTRKTSINIF
modifications: N-linked glycans (three glycosylation sites observed in BRD2)
notes: signal peptide in the construct; full-length cDNA in pCAG; His6 and FLAG tags were inserted after the signal peptide; also called cSID1; apo-cSID1; source: HEK293F, transiently transfected (pCAG), purified (anti-FLAG M2, Ni-NTA, SEC in GDN)
For B1, the “stoichiometry N” value was 2.
